From patent US20230312753A1 (IMMUNORIZON, published 2023)

Tests used:
[1] = target: T1, h5T4-His (recombinant human 5T4) (human, UniProt Q13641 32-355, limits assumed); experiment: ELISA on coated h5T4-His (FIG. 43B)
T1 construct: Bought protein; also called recombinant 5T4
T1 sequence (looked up): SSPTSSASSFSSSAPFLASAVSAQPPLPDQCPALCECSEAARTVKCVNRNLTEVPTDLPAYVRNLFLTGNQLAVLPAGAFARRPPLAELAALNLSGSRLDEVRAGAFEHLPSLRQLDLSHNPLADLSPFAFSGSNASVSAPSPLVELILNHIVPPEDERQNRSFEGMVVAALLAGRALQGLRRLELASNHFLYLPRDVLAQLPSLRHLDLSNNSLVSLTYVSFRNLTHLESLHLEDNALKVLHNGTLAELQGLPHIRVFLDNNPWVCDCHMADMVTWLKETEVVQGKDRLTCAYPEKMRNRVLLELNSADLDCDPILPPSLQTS
Procedure: (§1) Methods: ELISA binding of Tribody/ProTribody antibody constructs to antigens: Dilute target protein (hCD3epsilon-His (cat # 10977-H08S, supplier Sino Biological); h5T4-His (cat# 19845-H08H, supplier Sino Biological); NKG2A-CD94-ECD-hFc, Lot:20200724002, provided by CP; or NKG2D-ECD-hFc, Lot: 20200413002, provided by CP) into PBS with final concentration of 0.01 µg/mL for hCD3epsilon-His, 0.3 µg/mL for h5T4-His, 1 µg/mL for NKG2A-CD94-ECD-hFc and 0.7 µg/mL for hNKG2D-ECD-hFc respectively and coat 100 µL/well on ELISA plate (cat: 9018, supplier Corning) respectively. Incubate O/N, 4° C. The plates were blocked with 250 µL 1% BSA in PBST for 1 hr at 37° C.Wash 4 times with PBST. All the washes are done using Biotek (Elx 405). All the Tribody set antibodies were diluted to 400 nM and make 4-fold serially dilutions (12 points, including 0 point). Add 100 µL/well diluted antibody constructs solution to plate, incubate for 1 hr at 37° C.Wash 4 times with PBST. Add 100 µL/well anti-human kappa light chain-HRP (1:10000), incubate for 0.5 hr at 37° C. Wash 4 times with PBST. 100 µL/well of TMB substrate was added and incubated at room temperature for 5 min. 100 µL/well of 1N HCl to terminate reaction. Plates were read using ELISA plate reader at 450 nm wavelength (instrunet SpectraMax M5e). Data Analysis was performed using Graphpad prism 5 software by using nonlinear regression (curve fit): log (agonist) vs. response, agonist is antibody concentration (nM) and response is OD value.

[2] = target: T2, NKG2A on NK92 cells (endogenous) (UniProt P26715 1-233, limits assumed); experiment: FACS on NK92 cells, endogenous NKG2A (FIG. 45C)
T2 construct: whole, on cells
T2 sequence (P26715 whole entry): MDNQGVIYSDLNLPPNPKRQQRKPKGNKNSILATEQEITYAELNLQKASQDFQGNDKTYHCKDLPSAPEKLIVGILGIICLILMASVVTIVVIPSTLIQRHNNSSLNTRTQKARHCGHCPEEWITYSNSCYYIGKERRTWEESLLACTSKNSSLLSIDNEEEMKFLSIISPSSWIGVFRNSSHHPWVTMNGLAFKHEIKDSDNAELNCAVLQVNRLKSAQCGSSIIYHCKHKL
Procedure: (§2) Suspension cultured cells was harvested directly, and adherent cell were digested using TrypLE Express Enzyme (cat: 12604-013, supplier Life technologies). Centrifuge at 1000 rpm for 5 min and discard the supernatant. Cells are suspended at a concentration of 2×10⁶/mL in FACS buffer (2% FBS in PBS) and add 100 µL/well of cell suspension to the plate (cat #3799, supplier Corning). Centrifuging the plates at 2000 rpm for 5 min and discard the supernatant. Re-suspend the cells in 100 µL/well of Tribody set antibodies (400 nM start, 4-fold dilution, 8 point including 0 point) and incubate the plate for 60 min at 4° C. Centrifuge the plate at 2000 rpm, 4° C. for 5 min and discard supernatant. Then wash the cells 3 times with 170 µL FACS buffer. Re-suspend the cells at 100 µL/well with secondary antibody (goat anti-human Ig Fab-FITC, Cat # 2085-02, Southern biotech) with 1:400 dilution and incubate the plate for 30 min at 4° C. in dark. Centrifuge the plate at 2000 rpm, 4° C. for 5 min and discard supernatant. […] The fluorescence intensity of the staining was measured using flow cytometer (BD, FACSVerse). The geometric mean fluorescence intensity (GMFI; median fluorescence intensity (MFI)) of set antibodies staining was calculated (BD FACSuite software). Dose-response curves were generated and EC50s for thetrispecific variants binding were calculated using GraphPad Prism software.

[3] = target: T3, human CD3 epsilon on cells (Jurkat T cells, endogenous) (human, UniProt P07766 23-207); experiment: FACS on Jurkat T cells, endogenous hCD3ε (FIG. 45A)
T3 construct: whole, on cells; On cells CD3 epsilon stands in the TCR/CD3 complex; only the epsilon chain is named as target; also called hCD3ε on Jurkat; CD3ε expressing cells
T3 sequence (P07766 23-207): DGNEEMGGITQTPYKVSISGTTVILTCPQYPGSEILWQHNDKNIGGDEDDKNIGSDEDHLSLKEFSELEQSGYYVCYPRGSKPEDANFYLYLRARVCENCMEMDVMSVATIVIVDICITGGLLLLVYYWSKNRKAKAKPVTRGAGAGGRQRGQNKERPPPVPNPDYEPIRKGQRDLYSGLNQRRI
Procedure: as §2, with “buffer.” for “buffer. Re-suspend the cells at 100 µL/well with secondary antibody (goat anti-human Ig Fab-FITC, Cat # 2085-02, Southern biotech) with 1:400 dilution and incubate the plate for 30 min at 4° C. in dark. Centrifuge the plate at 2000 rpm, 4° C. for 5 min and discard supernatant.”
Results: The expressed trispecific constructs were analyzed for their binding to cells expressing endogenous CD3ε, 5T4 and NKG2A/NKG2D.

NKG2A-CD94-ECD-hFc [4] = target: T4, NKG2A-CD94-ECD-hFc (human, UniProt P26715 94-233; Q13241 32-179, limits assumed); experiment: ELISA on coated NKG2A-CD94-ECD-hFc (FIG. 43C)
T4 construct: extracellular domain; Lot 20200724002, 'provided by CP'; the two-chain layout here is only the reading of the name; also called human NKG2A (recombinant); NKG2A antigen; not shown: human Fc (hFc)
T4 sequence (P26715 94-233 limits assumed, chain 1 of 2): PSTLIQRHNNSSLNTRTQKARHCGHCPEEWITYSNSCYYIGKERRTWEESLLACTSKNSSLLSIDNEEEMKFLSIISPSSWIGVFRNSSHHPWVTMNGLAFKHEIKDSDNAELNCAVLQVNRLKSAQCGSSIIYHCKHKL
T4 sequence (Q13241 32-179 limits assumed, chain 2 of 2): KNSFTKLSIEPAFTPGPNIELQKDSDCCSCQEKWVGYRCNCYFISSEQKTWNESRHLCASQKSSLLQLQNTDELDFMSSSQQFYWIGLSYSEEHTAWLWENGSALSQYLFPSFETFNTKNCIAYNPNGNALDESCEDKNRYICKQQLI
Procedure: as §1

[5] = target: T5, NKG2A/CD94 on CHO cells (CHOK1-NKG2A-CD94) (human, UniProt P26715 1-233; Q13241 1-179, limits assumed); experiment: competitive FACS receptor-ligand blocking assay on CHOK1-NKG2A-CD94 cells, labelled ligand HLA-E PE (FIG. 49)
T5 construct: whole, on cells; also called CHO cells over-expressing NKG2A/CD94; CHO cell line over expressing ectopic NKG2A
T5 sequence (P26715 whole entry, chain 1 of 2): as the sequence (P26715 whole entry) above
T5 sequence (Q13241 whole entry, chain 2 of 2): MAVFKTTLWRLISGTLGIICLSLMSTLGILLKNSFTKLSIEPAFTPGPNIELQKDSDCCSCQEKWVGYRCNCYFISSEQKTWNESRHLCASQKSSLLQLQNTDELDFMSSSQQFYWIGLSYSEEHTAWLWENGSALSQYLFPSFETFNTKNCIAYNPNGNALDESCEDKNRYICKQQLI

NKG2A-CD94-ECD-hFc [6] = target: T4, NKG2A-CD94-ECD-hFc; experiment: ELISA on coated NKG2A-CD94-ECD-hFc (FIG. 43D)
Procedure: as §1

B1: IM-1062 Tribody (other)
heavy: GGSGGSEVQLVESGGGLVQPGGSLRLSCAASGFTFNTYAMNWVRQAPGKGLEWVARIRSKYNNYATYYADSVKDRFTISRDDSKNTLYLQMNSLRAEDTAVYYCVRHGNFGNSYVSWFAYWGQGTMVTVSSASTKGPSVFPLAPSSKSTSGGTAALGCLVKDYFPEPVTVSWNSGALTSGVHTFPAVLQSSGLYSLSSVVTVPSSSLGTQTYICNVNHKPSNTKVDKRVEPKSCPPCGGGGSDIQMTQSPSSLSASVGDRVTITCRASENIYSYLAWYQQKPGKAPKLLIYNAKTLAEGVPSRFSGSGSGTDFTLTISSLQPEDFATYYCQHHYGTPRTFGGGTKVEIKGGGGSGGGGSGGGGSGGGGSQVQLVQSGAEVKKPGASVKVSCKASGYTFTSYWMNWVRQAPGQGLEWMGRIDPYDSETHYAQKLQGRVTMTTDTSTSTAYMELRSLRSDDTAVYYCARGGYDFDVGTLYWFFDVWGQGTTVTVSS
light: GGSGGSQAVVTQEPSLTVSPGGTVTLTCRSSTGAVTTSNYANWVQQKPGQAPRGLIGGTNKRAPGTPARFSGSLLGGKAALTLSGVQPEDEAEYYCALWYSNLWVFGGGTKLTVLGQPKAAPSVTLFPPSSEELQANKATLVCLISDFYPGAVTVAWKADSSPVKAGVETTTPSKQSNNKYAASSYLSLTPEQWKSHRSYSCQVTHEGSTVEKTVAPTECPPCSGGGSDIQMTQSPSSLSASVGDRVTITCRASQGISNYLAWFQQKPGKAPKSLIYRANRLQSGVPSRFSGSGSGTDFTLTISSLQPEDVATYYCLQYDDFPWTFGQGTKLEIKGGGGSGGGGSGGGGSGGGGSQVQLVQSGAEVKKPGASVKVSCKASGYTFTSFWMHWVRQAPGQGLEWMGRIDPNRGGTEYNEKAKSRVTMTADKSTSTAYMELSSLRSEDTAVYYCAGGNPYYPMDYWGQGTTVTVSS
notes: Tri-specific antibody (Tribody): anti-CD3 epsilon Fab with an anti-5T4 scFv and an anti-NKG2A scFv, no regulatory domain; also called the Tribody format
[1]
  EC50: 45 nM
[2]
  EC50: 6.5 nM
[3]
  EC50: 1.1 nM
NKG2A-CD94-ECD-hFc [4]
  EC50: 4.4 nM
[5]
  IC50: 29 nM
NKG2A-CD94-ECD-hFc [6]
  EC50: 5.7 nM
